Residue numbers refer to the chain shown, from its start.
B1: CD3-VH-G: anti-CD3 antibody engineered from CD3-VH-P to contain only germline frameworks, HCVR SEQ ID NO: 1730 (antibody, V domains shown)
VH: EVQLVESGGGLVQPGRSLRLSCAASGFTFDDYSMHWVRQAPGKGLEWVSGISWNSGSKGYADSVKGRFTISRDNAKNSLYLQMNSLRAEDTALYYCAKYGSGYGKFYHYGLDVWGQGTTVTVSS
VL: DIQMTQSPSSLSASVGDSVTITCRASQSINNYLNWYQQKPGKAPKLLIYTASSLLSGVPSRFSGSGSGTDFTLTISGLHPEDFATYFCQQSFSTPPITFGQGTRLDIK
B2: BSSTEAP2/CD3-010: STEAP2×CD3 bispecific: anti-STEAP2 H1H7809N (SEQ 330), anti-CD3 H1H7198P (SEQ 1466), common LCVR of H1H7809N (antibody, V domains shown)
VH 1: QVQLVESGGGVVQPGRSLGLSCAASGFTFSSYGMHWVRQAPGKGLEWVAVIWYDGSNKYYVDSVKGRFTISRDNSKNTLYLQMNSLRAEDTAVYYCAREGLRFLENYYYYYGMDVWGQGTTVTVSS
VH 2: B1 VH with D30A, S33T, A40V, G50D, G59D, S78F, A97V, H108F, G110A, L111M
VL: EIVLTQSPGTLSLSPGERATLSCRASQSISSTYLAWYQQRPGQAPRLLIYGASSRATGIPDRFSGSGSGTDFTLTISRLEPEDFAVYYCQQYGTSPYTFGQGTKLEIK

What was measured:
human CD3 (Jurkat cells) = assay: FACS titration of anti-CD3 antibodies on Jurkat cells; assay type: binding; conditions: anti-CD3 antibody
Excerpt: See, e.g. FACS binding experiments outlined in Example 12 and in PCT/US2016/044732 filed Jul. 29, 2016.

[1] = system: Jurkat cells (express human CD3); assay: FACS binding titration of STEAP2xCD3 bispecifics on Jurkat cells; conditions: 66.6 nM to 0.001 nM, 30 minutes at 4° C.
Method: (§1) FACS Binding Titration on Jurkat Cells, PC3_STEAP2/1 Cells and cynomolgus T Cells: Flow cytometric analysis was utilized to determine binding of STEAP2×CD3 bispecific antibodies to Jurkat, PC3_STEAP2/1 chimeric and cynomolgus T cells, followed by detection with a phycoerythrin (PE)-labeled anti-human IgG antibody. Briefly, 2×10^5 cells/well were incubated for 30 minutes at 4° C. with a serial dilution of STEAP2×CD3 bispecific antibodies or control antibody (a human IgG1 antibody that binds a feline antigen with no cross-reactivity to STEAP2 or human or cynomolgus CD3) ranging from 66.6 nM to 0.001 nM. After incubation, the cells were washed twice with cold PBS containing 1% filtered FBS and a PE-conjugated anti-human secondary antibody was added to the cells and incubated for an additional 30 minutes. Wells containing no antibody or secondary antibody only were used as a control. After incubation, cells were washed, re-suspended in 200 μL cold PBS containing 1% filtered FBS and analyzed by flow cytometry on a BD FACS Canto II.

[2] = system: PC3_STEAP2/1 cells (PC3 engineered to express a STEAP2/1 chimeric construct); assay: FACS binding titration of STEAP2xCD3 bispecifics on PC3_STEAP2/1 cells; design: species or system human; conditions: 66.6 nM to 0.001 nM, 30 minutes at 4° C.
Method: as §1

cynomolgus T cells = assay: FACS binding titration of STEAP2xCD3 bispecifics on cynomolgus T cells; conditions: 66.6 nM to 0.001 nM, 30 minutes at 4° C.
Method: as §1

human PBMCs = assay: T cell proliferation assay, human PBMC; assay type: cell-based; conditions: with anti-CD28 200 ng/mL, 72 hours; read-out: hPBMC Proliferation [M] (EC50)
Method: Thawed human or freshly isolated monkey PBMCs (50,000 cells/well) were incubated with 3-fold (human, concentration range: 5E-10M to 2.82E-15M; cynomolgus, concentration range: 1E-09M to 4.57E-13M) serial dilutions of STEAP2×CD3 bispecifics or isotype control in complete medium (RPMI supplemented with 10% FBS, 100 U/mL penicillin, 100 μg/mL streptomycin, 292 μg/mL L-glutamine) and a fixed concentration (human: 200 ng/mL, cyno: 500 ng/mL) of a commercial anti-CD28 antibody (Biolegend, Catalog #302914) in white flat bottom 96-well plates for 72 hours at 37° C. Isolated monkey PBMCs were from two donors (identified as mk8781M or mk9381M). Following incubation, CellTiter Glo® (Promega, Cat #7573) was added and luminescence, as readout for cell viability, was measured using a VICTOR X5 multi-label plate reader. Cell titer was calculated by dividing the luminescence of stimulated cells by the baseline luminescence of unstimulated cells.
All αSTEAP2×αCD3 bispecific antibodies induce human PBMC proliferation in the presence of a co-stimulatory anti-CD28 antibody (See Table 20 and FIG. 9). PBMCs were incubated with a serial dilution of bispecific antibodies or the control antibody and a fixed concentration of anti-CD28 for 72 hours, and cell viability was measured in a luminescence assay to detect live cells. […]

Molecule | EC50, FACS titration of Jurkat cells (human CD3) (human CD3 (Jurkat cells)) | EC50 [1] | FACS PC3_STEAP2/1 EC50 [M] [2] | Cynomolgus T cells EC50 [M] (cynomolgus T cells) | EC50 (human PBMCs)
B1 | retained their binding affinity |  |  |  | 
B2 |  | 13.6 nM | No Binding | Very Weak | 6.55e-12 M
